To fix the notation:
B1: acrylodan-labeled PNKP (PNKP^WFX402-AC) (enzyme)
chain: not shown
modifications: acrylodan (6-acryloyl-2-dimethylaminonaphthalene, AC) label, site not stated

Test [1] addresses T1, full-length XRCC1-His (recombinant, from E. coli) (human, UniProt P18887 1-633).
T1 construct: XRCC1, human, full length, not phosphorylated (made in E. coli); also called wild-type XRCC1; X-ray repair cross-complementing 1; source: E. coli (pET16b-XH), purified
Kind of test: other fluorescence titration; quenching of acrylodan fluorescence of PNKP-AC (excitation 380 nm, emission 485-490 nm) by added XRCC1 protein; 25 °C; PNKP-AC 20 nM with full-length XRCC1-His, 80 nM with His-XRCC1^161–406 and in the emission scans with His-XRCC1^FFF; nonlinear regression, unimodal binding. The note with it: both partners purified.

For test [2], the target named is B1. The description is as above. The note with it: both partners purified.

T1 sequence (P18887 whole entry): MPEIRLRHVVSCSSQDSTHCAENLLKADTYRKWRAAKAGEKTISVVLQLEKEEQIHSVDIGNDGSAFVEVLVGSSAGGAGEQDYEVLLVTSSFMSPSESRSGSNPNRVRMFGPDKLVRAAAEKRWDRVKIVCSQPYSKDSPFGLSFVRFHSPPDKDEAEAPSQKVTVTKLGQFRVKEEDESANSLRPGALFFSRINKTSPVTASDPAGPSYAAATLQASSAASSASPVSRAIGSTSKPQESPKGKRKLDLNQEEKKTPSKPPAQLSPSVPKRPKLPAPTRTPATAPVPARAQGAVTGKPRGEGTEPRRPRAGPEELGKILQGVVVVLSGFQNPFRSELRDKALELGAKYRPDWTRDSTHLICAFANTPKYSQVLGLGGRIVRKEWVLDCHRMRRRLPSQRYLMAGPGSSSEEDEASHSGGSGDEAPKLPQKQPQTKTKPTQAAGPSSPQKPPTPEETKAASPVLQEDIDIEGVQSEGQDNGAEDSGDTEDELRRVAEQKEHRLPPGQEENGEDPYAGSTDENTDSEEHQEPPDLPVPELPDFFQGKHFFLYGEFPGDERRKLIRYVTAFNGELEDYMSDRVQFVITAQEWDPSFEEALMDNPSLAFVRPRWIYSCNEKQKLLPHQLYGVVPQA

The term Kd denotes the free concentration of one partner at which half of the binding sites on the other are occupied at equilibrium, for simple one-to-one binding. With B1, the Kd in test [1] was roughly 30 nM.

B2: His-XRCC1^161–406 (domain or fragment)
chain: PSQKVTVTKLGQFRVKEEDESANSLRPGALFFSRINKTSPVTASDPAGPSYAAATLQASSAASSASPVSRAIGSTSKPQESPKGKRKLDLNQEEKKTPSKPPAQLSPSVPKRPKLPAPTRTPATAPVPARAQGAVTGKPRGEGTEPRRPRAGPEELGKILQGVVVVLSGFQNPFRSELRDKALELGAKYRPDWTRDSTHLICAFANTPKYSQVLGLGGRIVRKEWVLDCHRMRRRLPSQRYLMAGP
In test [2], B2 displayed a Kd of roughly 95 nM.

For the origin of these results see paper PMC5625035, “The Rev1 interacting region (RIR) motif in the scaffold protein XRCC1 mediates a low-affinity interaction with polynucleotide kinase/phosphatase (PNKP) during DNA single-strand break repair” (The Journal of Biological Chemistry, 2017).
